Two molecules from US9766249B2, “Compositions and methods for prediction of drug sensitivity, resistance, and disease progression” (BioMarker Strategies, LLC, priority 2010, dated 2017) can be followed below.

What all share (assay type): cell-based
Assay [1] has as its system RPMI-7951. The experiment in a line: PDGFβ stimulation and MEK inhibition of PDGFβ stimulation (FIGS. 23 and 24). Conditions: PDGFβ stimulation.
In assay [2] the test system is RPMI-7951. The experiment in a line: Melanoma pErk induction following stimulation by TPA (FIG. 17).
Assay [3] relates to human pancreatic neuroendocrine tumors (PanNETs). The experiment in a line: Pancreatic tumor functional signaling profile upon TPA stimulation (FIG. 18). The conditions noted are these: tumor sample 10189 (metastatic PancNET). The text has this:
All samples except 10195 are examples of human pancreatic neuroendocrine tumors (PanNETs). 10195 is a sample of a human pancreatic adenocarcinoma. The data reveal differences in functional profiles based on TPA stimulation using three different phosphoprotein biomarkers (p-ERK1/2, p-GSKα/β, and p-STAT3).

B1: PDGFβ: platelet-derived growth factor stimulus applied to melanoma cell lines (protein, UniProt P01127 82-190, looked up)
Platelet-derived growth …: SLGSLTIAEPAMIAECKTRTEVFEISRRLIDRTNANFLVWPPCVEVQRCSGCCNNRNVQCRPTQVQLRPVQVRKIEIVRKKPIFKKATVTLEDHLACKCETVAAARPVT
As to B1, the pPDGF entry in the assay on RPMI-7951 [1] is recorded as “activated”.

B2: tissue plasminogen activator (protein, UniProt P00750 36-562, looked up)
Tissue-type plasminogen …: SYQVICRDEKTQMIYQQHQSWLRPVLRSNRVEYCWCNSGRAQCHSVPVKSCSEPRCFNGGTCQQALYFSDFVCQCPEGFAGKCCEIDTRATCYEDQGISYRGTWSTAESGAECTNWNSSALAQKPYSGRRPDAIRLGLGNHNYCRNPDRDSKPWCYVFKAGKYSSEFCSTPACSEGNSDCYFGNGSAYRGTHSLTESGASCLPWNSMILIGKVYTAQNPSAQALGLGKHNYCRNPDGDAKPWCHVLKNRRLTWEYCDVPSCSTCGLRQYSQPQFRIKGGLFADIASHPWQAAIFAKHRRSPGERFLCGGILISSCWILSAAHCFQERFPPHHLTVILGRTYRVVPGEEEQKFEVEKYIVHKEFDDDTYDNDIALLQLKSDSSRCAQESSVVRTVCLPPADLQLPDWTECELSGYGKHEALSPFYSERLKEAHVRLYPSSRCTSQHLLNRTVTDNMLCAGDTRSGGPQANLHDACQGDSGGPLVCLNDGRMTLVGIISWGLGCGQKDVPGVYTKVTNYLDWIRDNMRP
notes: modulator used for ex vivo stimulation
Take B2: in the assay on RPMI-7951 [2], the pErk entry is given as “induction”. Also, the pERK induction in assay [3] is reported as 10 ×.
